According to PMC3206013, “Unique Interplay between Sugar and Lipid in Determining the Antigenic Potency of Bacterial Antigens for NKT Cells” (PLoS Biology, 2011):

Target: biotinylated mouse CD1d/β2m, wild type, loaded with α-GalCer (mouse) (UniProt P11609)
Test: SPR; α-GalCer loaded

Kd: 39.9 nM
Substance: Vα14Vβ8.2 iNKT TCR (mouse invariant NKT cell T cell receptor)
